Assay results as given in patent publication US20220073922A1.

Legend:
[1] = biological target: human VEGF-121 (human) (UniProt P15692); assay: magnetic-bead partitioning binding assay read by flow cytometry; bound fraction against VEGF-121 concentration (1e-12 to about 1e-8 M), Langmuir one-site fit; how Lucentis was immobilised is not described
[2] = biological target: human VEGF-121 (human) (UniProt P15692); assay: receptor competition assay: His-tagged human VEGF-121 (0.1 nM) on beads with 1 nM human VEGF Receptor 1 and varied Lucentis; bound receptor fraction by flow cytometry, dose-response inhibition fit; blocked partner: VEGF Receptor 1
[3] = biological target: human VEGF-121 (human) (UniProt P15692); assay: receptor competition assay: His-tagged human VEGF-121 (0.1 nM) on beads with 1 nM human VEGF Receptor 2 and varied Lucentis; bound receptor fraction by flow cytometry, dose-response inhibition fit; blocked partner: VEGF Receptor 2

Sequence of human VEGF-121 (human) (P15692 other isoform, or with tags, fused parts or gaps limits assumed): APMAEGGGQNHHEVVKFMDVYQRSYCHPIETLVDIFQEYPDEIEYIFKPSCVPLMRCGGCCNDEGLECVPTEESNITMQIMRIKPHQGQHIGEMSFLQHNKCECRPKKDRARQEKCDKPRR

- Kd [1]: 1.69 nM
- IC50 [2]: 5.58 nM
- IC50 [3]: 2.36 nM
Substance: Lucentis® (Fab)
